Measured values: patent US20220332812A1, “TREATMENT METHODS FOR EYE DISORDERS” (University of Pittsburgh - of the Commonwealth System of …, priority 2019, published 2022)
Each block holds one molecule with its values, some of them ahead of it.

Tests used:
diabetic Nuc1 rats = assay: retinal function by electroretinography (ERG) in diabetic Nuc1 rats; type: in vivo, rat; details: FIGS. 20A-20B
From the text: Therefore, βA1-crystallin is a first of its kind inhibitor that can be used as a therapy for DR.

PTP1B [1] = biological target: T1, PTP1B (Rattus norvegicus, UniProt P20417); assay: co-immunoprecipitation in astrocytes; details: wild-type astrocytes; binding lost in Nuc1 cells
T1 construct: endogenous in cells; host or cells: astrocytes from wild-type and Nuc1 rats
T1 sequence (P20417 1-432): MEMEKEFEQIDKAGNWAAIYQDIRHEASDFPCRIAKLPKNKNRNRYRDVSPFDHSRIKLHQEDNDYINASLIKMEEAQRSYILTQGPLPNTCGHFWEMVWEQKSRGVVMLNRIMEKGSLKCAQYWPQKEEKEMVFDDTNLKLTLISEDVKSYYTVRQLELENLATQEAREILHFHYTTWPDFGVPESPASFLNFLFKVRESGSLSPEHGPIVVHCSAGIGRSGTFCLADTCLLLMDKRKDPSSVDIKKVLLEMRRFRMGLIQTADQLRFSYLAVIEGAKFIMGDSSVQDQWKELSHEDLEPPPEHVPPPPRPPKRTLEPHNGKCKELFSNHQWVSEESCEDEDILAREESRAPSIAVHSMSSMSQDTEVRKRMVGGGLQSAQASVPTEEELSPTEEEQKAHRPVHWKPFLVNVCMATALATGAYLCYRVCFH

PTP1B [2] = biological target: T2, PTP1B (Homo sapiens, UniProt P18031); assay: PTP activity kinetics, Lineweaver Burk plots; type: biochemical; details: FIG. 13
T2 sequence (P18031 1-435): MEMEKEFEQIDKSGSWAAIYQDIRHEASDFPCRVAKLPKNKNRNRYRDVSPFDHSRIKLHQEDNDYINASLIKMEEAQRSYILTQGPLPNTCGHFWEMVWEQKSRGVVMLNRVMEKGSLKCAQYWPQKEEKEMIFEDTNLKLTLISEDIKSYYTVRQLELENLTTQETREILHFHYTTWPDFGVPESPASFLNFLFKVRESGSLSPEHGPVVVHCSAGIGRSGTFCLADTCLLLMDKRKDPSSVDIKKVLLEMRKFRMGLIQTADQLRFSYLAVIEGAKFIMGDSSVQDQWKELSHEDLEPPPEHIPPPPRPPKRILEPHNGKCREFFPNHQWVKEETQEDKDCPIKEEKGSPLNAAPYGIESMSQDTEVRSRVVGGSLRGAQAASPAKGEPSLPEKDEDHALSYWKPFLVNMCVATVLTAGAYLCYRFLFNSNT

PTP1B [3] = biological target: T2, PTP1B; assay: pull-down assay; type: binding
PTP1B [4] = biological target: T2, PTP1B; assay: human proteome high-throughput array, βA3/A1-crystallin binding partners; set-up: purchased CDI Laboratories, Inc; details: human proteome high-throughput array (CDI Laboratories)
NOD-SCID mice [5] = assay: retinal sections of injected NOD-SCID mice: hematoxylin-eosin staining and immunofluorescence; type: in vivo, mouse
Protocol: Freshly enucleated eyes were fixed in 2% paraformaldehyde (PFA) for 10 min and then the anterior parts (cornea, lens, and attached iris pigmented epithelium) were removed. The resulting posterior eyecups were fixed in 2% PFA for 1 h at room temperature either for cryosections or RPE/retina flat mount. For cryosections, the eyecups were dehydrated through gradient sucrose solutions and embedded in OCT and for RPE/retina flatmounts, tissues were removed after the eyecup was quartered like a petaloid structure. The resulting eyecup was further cut radially into eight pieces from the optic nerve head to the periphery. Immunostaining on human/mouse retina sections or on retina/RPE flatmounts were performed by using appropriate primary antibody (1:100) and incubated at 4° C. overnight. The RPE/retina flatmounts or human or mouse retina sections were washed with 1×TBS thrice and then stained with appropriate secondary antibodies (1:300) with 1 μg/mL DAPI (Sigma Aldrich, USA) in the dark at room temperature for 2 h. The tissue sections or flatmounts were washed 6 times with 1×TBS. The tissues were mounted on a cover slip with DAKO mounting agent and then visualized under a confocal microscope (Zeiss LSM710, Switzerland).
NOD-SCID mice (NOD.CB17-Prkdescid/J, Jackson Laboratories, USA, male, 4-5 weeks old) were used for the study. A large sample size, n=10, was taken to nullify any experimental anomaly. Mice were anaesthetized and sub-retinal injections of neutrophils from different experimental groups or recombinant LCN-2 protein were given as described previously (Maruotti et al., Proc. Natl. Acad. Sci. USA., 112: 10950-10955 (2015)). […] OCT images were analyzed on optical sections (100 sections per retina) from each eye ranging from −2.0 to +2.0 mm with respect to the optic nerve head (ONH) using the FIJI-ImageJ (NIH) plugin provided with the instrument along with Diver 2.4 software (Bioptigen). […]

Dab2 = biological target: T3, Dab2 (Homo sapiens, UniProt P98082); assay: HuProt human proteome microarray, LCN-2 binding partners; details: recombinant LCN-2 probed at 1 μg/mL, Z-score cutoff 6
T3 construct: purchased CDI NextGen Proteomics, MD, USA HuProt v3.1
T3 sequence (P98082 1-770): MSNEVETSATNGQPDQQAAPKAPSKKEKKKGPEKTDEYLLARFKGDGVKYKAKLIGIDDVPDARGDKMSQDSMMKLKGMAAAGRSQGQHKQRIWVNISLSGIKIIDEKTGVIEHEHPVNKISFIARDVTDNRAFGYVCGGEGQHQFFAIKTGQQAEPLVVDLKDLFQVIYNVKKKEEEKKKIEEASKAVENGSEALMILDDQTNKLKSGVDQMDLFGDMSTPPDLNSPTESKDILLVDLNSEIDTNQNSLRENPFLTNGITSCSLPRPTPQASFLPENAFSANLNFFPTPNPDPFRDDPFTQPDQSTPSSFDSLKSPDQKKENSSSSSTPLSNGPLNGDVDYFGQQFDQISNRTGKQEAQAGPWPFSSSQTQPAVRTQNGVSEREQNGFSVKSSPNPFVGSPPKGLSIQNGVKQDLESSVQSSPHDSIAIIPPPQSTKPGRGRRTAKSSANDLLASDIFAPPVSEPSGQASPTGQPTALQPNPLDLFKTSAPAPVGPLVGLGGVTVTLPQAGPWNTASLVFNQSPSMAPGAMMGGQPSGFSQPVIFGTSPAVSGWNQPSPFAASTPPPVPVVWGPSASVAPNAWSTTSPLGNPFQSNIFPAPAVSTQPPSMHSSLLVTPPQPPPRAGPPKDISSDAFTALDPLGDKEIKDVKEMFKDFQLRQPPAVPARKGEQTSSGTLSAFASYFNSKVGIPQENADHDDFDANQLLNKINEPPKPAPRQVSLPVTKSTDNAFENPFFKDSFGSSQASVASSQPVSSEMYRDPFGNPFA
Protocol: The human proteome microarray 2.0 analysis was performed as a paid service from CDI NextGen Proteomics, MD, USA. Recombinant LCN-2 was analyzed for protein-protein interaction profiling on the HuProt™ v3.1 human proteome array and the sample was probed on array plates at 1 μg/mL, with data analyzed using GenePix software. Hit identification was assessed as the ratio of median value of the foreground to the median of the surrounding background for each protein probe on the microarray, followed by normalization to the median value of all neighboring probes within the […] window size and represented as the significance of the probe binding signal difference from random noise (Z-Score). The cutoff Z-score was 6 in this study for the triplicate analysis; only protein interactions with a Z-score above 6 were considered.
The above-described observations prompted the further investigation of the possible molecular mechanisms by which neutrophils infiltrate into the retina and thereby contribute to the pathogenesis of AMD. It has previously been shown that LCN-2 regulates neutrophil chemotaxis and cell migration in cancer cells (Shao et al., J. Invest. Dermatol., 136, 1418-1428 (2016), and Du et al., Biochim. Biophys. Acta, 1853: 2240-2250 (2015)). […]

NOD-SCID mice [6] = assay: sub-retinal injection in NOD-SCID mice, OCT; type: in vivo, mouse
From the text: NOD-SCID mice (NOD.CB17-Prkdescid/J, Jackson Laboratories, USA, male, 4-5 weeks old) were used for the study. A large sample size, n=10, was taken to nullify any experimental anomaly. Mice were anaesthetized and sub-retinal injections of neutrophils from different experimental groups or recombinant LCN-2 protein were given as described previously (Maruotti et al., Proc. Natl. Acad. Sci. USA., 112: 10950-10955 (2015)). Seven days after treatment, the NOD-SCID mice were anaesthetized by intraperitoneal injection of a ketamine and xylazine mixture and then subjected to Fundus imaging along with OCT analysis using the Bioptigen Envisu R2210 system. OCT images were analyzed on optical sections (100 sections per retina) from each eye ranging from −2.0 to +2.0 mm with respect to the optic nerve head (ONH) using the FIJI-ImageJ (NIH) plugin provided with the instrument along with Diver 2.4 software (Bioptigen). After the experiment, the animals were euthanized with CO2 gas and the eyes were harvested for further experiments. […]

Molecule: PTP1B (pull-down assay and enzyme kinetics)
Lineweaver Burk plots of PTP activity (Km and Vmax) (βA3/A1-crystallin): Cryba1 treatment decreases the Km and Vmax of PTP activity

retinal function (ERG) (diabetic Nuc1 rats): rescues retinal function abnormality
Molecule: CC(C)[C@@H](CC[C@@H](C)[C@H]1CC[C@H]2[C@@H]3[C@H](O)C[C@H]4C[C@@H](NCCCNCCCCNCCCN)CC[C@]4(C)[C@H]3CC[C@]12C)OS(=O)(=O)O [MSI-1436]

binding partner by co-immunoprecipitation (PTP1B [1]): PTP1B was a binding partner | mode of PTP1B inhibition (PTP1B [2]): uncompetitive inhibitor of PTP1B | binding to PTP1B (PTP1B [3]): bound to PTP1B | interaction with PTP1B (PTP1B [4]): interact with PTP1B
B1: βA3/A1-crystallin: two closely related polypeptides encoded by Cryba1, produced by two different translational start sites; biological inhibitor binding PTP1B (protein)
chain: METQTVQRELETLPTTKMAQTNPMPGSMGPWKITIYDQENFQGKRMEFTSSCPNVSERSFDNVRSLKVECGAWIGYEHTSFCGQQFILERGEYPRWDAWSGSNAYHIERLMSFRPICSANHKESKITIFEKENFIGRQWEICDDYPSLQAMGWFNNEVGSMKIQCGAWVCYQYPGYRGYQYILECDHHGGDYKHWREWGTHAQTSQIQSIRRIQQ
Km of PTP activity (PTP1B [2]): decreases | Vmax of PTP activity (PTP1B [2]): decreases

interaction with Dab2 (Dab2): interact with Dab2
B2: recombinant LCN-2: recombinant Lipocalin-2 protein, full length LCN-2 cDNA expressed in E. coli (protein)
chain: QDSTQNLIPAPSLLTVPLQPDFRSDQFRGRWYVVGLAGNAVQKKTEGSFTMYSTIYELQENNSYNVTSILVRDQDQGCRYWIRTFVPSSRAGQFTLGNMHRYPQVQSYNVQVATTDYNQFAMVFFRKTSENKQYFKITLYGRTKELSPELKERFTRFAKSLGLKDDNIIFSVPTDQCIDN
hematoxylin-eosin staining of retinal sections (NOD-SCID mice [5]; NOD-SCID mice, relative to vehicle control or WT neutrophil injected mice): degenerative changes in the outer nuclear layer (ONL) along with photoreceptor layer | thickness of retinal layers from sections by spider plot (NOD-SCID mice [5]; NOD-SCID mice, relative to vehicle or WT neutrophil-treated groups): severe loss or thinning of IS/OS and RPE layers | rhodopsin and RPE 65 staining (photoreceptor and RPE cell loss) (NOD-SCID mice [5]; immunofluorescence, retina of NOD-SCID mice, with respect to controls): reduced staining | OCT retinal structure after injection of WT neutrophils pre-treated with the substance (NOD-SCID mice [6]; NOD-SCID mice injected subretinally, IFNλ 200 U/mL, conditioned media 1:1 diluted, LCN-2 10 pg/mL, FIG. 4(iii)-(v)): apparent changes in the ONL and INL layers (asterisks), concomitant with severe loss of RPE and IS+OS layer | OCT: alterations of retinal layers (NOD-SCID mice [6]; NOD-SCID mice, sub-retinal injection, after 7 days): alterations in the RPE and photoreceptor (inner and outer segments) layers
